Measured values reported in patent US11213590B2, “SSTR-targeted conjugates and particles and formulations thereof” (priority 2016, dated 2022).
Several values for one entry are separate records, joined by “and”; a condition that tells them apart may be missing. Equal values may be shown once. Read-outs that look alike come from different tables or passages of the source.

Experiments:
SSTR1 = SSTR1 (Homo sapiens, UniProt P30872); experiment: Affinity profile (half-maximal inhibitory concentration), SSTR1; assay type: binding
Excerpt: (§1) DOTATE, also known as DOTA-TATE or DOTA-octreotate, comprises an amide of the acid DOTA, which connects a radionuclide and (Tyr3)-octreotate, a derivative of octreotide. DOTATOC, also known as edotreotide, SMT487, or (DOTA^0-Phe^1-Tyr^3)octreotide, is also an octreotide derivative which can be bound to radionuclides for diagnosis and treatment.

NCI-H727 = experiment: cells; assay type: cell-based, human; conditions: for IC50: assay duration 72 h
Procedure: (§2) The purpose of this study was to determine the receptor-dependent inhibition of proliferation in vitro by the somatostatin targeting conjugate Conjugate 57 and determine the sensitivity to DM1 in the human SSTR2 expressing cancer cell lines: NCI-H69, NCI-H82, NCI-H727 and HCC-33. Cells were incubated with Conjugate 57 for 6 hours, in the presence or absence of an excess of octreotide, a somatostatin analogue. A three-fold serial dilution of Conjugate 57 was used for a total of ten concentration points. After treatment, cells were washed, incubated for an additional period of time, either 72 or 96 hours and proliferation was measured using the CellTiter-Glo® Luminescent Cell Viability Assay. The IC50 of Conjugate 57 was used to determine the inhibiting activity in proliferation assays. To determine DM1 sensitivity a similar method to the Conjugate 57 assay was employed with the additional incubation time points of 30 minutes, 1, 2, and 4 hours and the exclusion of the pre-treatment with octreotide. DM1 effect from the most to least sensitive cell line was determined to be: NCI-H69>HCC-33>NCI-H82>NCI-H727 (Table 5B). […] The addition of excess octreotide (100 μM) competes with Conjugate 57 for binding to the SSTR2 receptor. […] In the NCI-H69 experiments, pre-incubation with an excess of octreotide modestly diminished the activity of Conjugate 57 by 1.6 and 2.4 fold, depending on the assay conditions. In the HCC-33 cell line, activity of Conjugate 57 was 3.2 (±1.4) times higher when dosed alone, compared to when the cells were pre-incubated with octreotide. The small but measureable changes in Conjugate 57 activity in the presence of excess octreotide seen in the NCI-H69 and HCC-33 cell lines supports the receptor dependence of the Conjugate 57 antiproliferative effect seen in vitro. In summary, although all the cell lines tested in these experiments express the SSTR2 protein, they have different levels of sensitivity to the Conjugate 57 conjugate of which the DM1 sensitivity may be a contributing factor.

NCI-H69 = experiment: cells; assay type: cell-based, human; conditions: for IC50: 5,000 cells/well
Procedure: as §2

[1] = biological target: human Ether-á-go-go-Related Gene (hERG) ion channel (Homo sapiens, UniProt Q12809); experiment: hERG ion channel inhibition, IonWorks Quattro patch clamp; assay type: cell-based; conditions: IonWorks Quattro; up to 10 μM
Procedure: (§3) The purpose of this study was to evaluate the potential of Conjugate 57 to prolong the QT interval via modulation of the ion channel, human Ether-á-go-go Related Gene (hERG). The potential inhibition of the ion channel activity by Conjugate 57 was tested using an IonWorks Quattro electrophysiological platform, which is an automated high-throughput patch clamp system. Conjugate 57 was tested at eight different concentrations, starting at a high concentration of 10 μM and a low concentration of 0.005 μM with a minimum of five replicates for each concentration. hERG currents were evoked by a three pulse protocol where voltage was first stepped to +40 mV for two seconds from a holding potential of −80 mV to inactivate hERG channels. The voltage is then stepped back to −50 mV for two seconds to evoke a tail current prior to returning to the holding potential for 1 second. The voltage protocol was applied (Pre), compounds added, incubated for 600 seconds, and the voltage protocol was applied a final time (Post) on the IonWorks Quattro.

hERG = hERG (Homo sapiens, UniProt Q12809); experiment: as above; assay type: cell-based; conditions: human; all concentrations tested (0.005 μM to 10 μM); 600 seconds incubation
Procedure: as §3

SSTR4 = SSTR4 (Homo sapiens, UniProt P31391); experiment: Affinity profile (half-maximal inhibitory concentration), SSTR4; assay type: binding
Excerpt: as §1

[2] = Excipient solubility and compatibility testing; assay type: physicochemical
Procedure: Conjugate 57 is an amphiphilic molecule and therefore tends to self-assemble into large structures. […] Commonly used parenteral surfactant excipients such as Polysorbate 80 (Tween 80) and Polyoxyl 15 Hydroxystearate (solutol, Kolliphor HS 15) were evaluated to re-assemble and stabilize Conjugate 57 into organized micelles. Conjugate 57 is compatible with non-ionic surfactants such as Tween 80 and solutol.

[3] = In vivo cardiovascular and respiratory evaluation; parameters: species or system beagle dog
Procedure: This study was conducted to evaluate the potential cardiovascular and respiratory effects of Conjugate 57 in conscious freely moving naïve male beagle dogs.
Assessments of cardiovascular and respiratory effects and general toxicity were based on mortality, clinical observations, body weight, body temperature, cardiovascular evaluations, i.e., blood pressure (systolic, diastolic, and mean arterial pressures), heart rate, the ECG (QRS duration and the RR, PR, QT, and Corrected QT [QTc] intervals), and respiratory evaluations (respiratory rate, tidal volume, and minute volume). The animals were monitored continuously for at least 2 hours prior to dosing and for 24 hours post dose.

[4] = 0.16 mg/kg iv, segment 1 (>0 to 0.25 hours post dose)
[5] = 0.16 mg/kg iv, segment 2 (>0.25 to 6 hours post dose)
[6] = 0.16 mg/kg iv, segment 3 (>6 to 24 hours post dose)
[7] = 0.20 mg/kg iv, segment 1 (>0 to 0.25 hours post dose)
[8] = 0.20 mg/kg iv, segment 2 (>0.25 to 6 hours post dose)
[9] = 0.20 mg/kg iv, segment 3 (>6 to 24 hours post dose)
[10] = 0.24 mg/kg iv, segment 1 (>0 to 0.25 hours post dose)
[11] = 0.24 mg/kg iv, segment 2 (>0.25 to 6 hours post dose)
[12] = 0.24 mg/kg iv, segment 3 (>6 to 24 hours post dose)

Sequence of SSTR4 (P31391 whole entry): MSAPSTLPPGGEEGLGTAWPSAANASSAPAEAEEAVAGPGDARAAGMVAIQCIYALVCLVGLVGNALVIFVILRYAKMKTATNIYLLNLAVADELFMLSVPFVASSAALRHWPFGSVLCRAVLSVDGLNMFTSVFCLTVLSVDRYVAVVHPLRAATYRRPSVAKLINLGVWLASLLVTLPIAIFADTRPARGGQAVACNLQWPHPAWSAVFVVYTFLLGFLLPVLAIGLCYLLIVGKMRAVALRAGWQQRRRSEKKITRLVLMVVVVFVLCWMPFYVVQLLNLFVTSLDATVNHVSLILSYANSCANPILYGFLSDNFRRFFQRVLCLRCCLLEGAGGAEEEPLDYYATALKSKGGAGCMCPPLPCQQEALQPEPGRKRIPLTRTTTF
Sequence of hERG (Q12809 whole entry): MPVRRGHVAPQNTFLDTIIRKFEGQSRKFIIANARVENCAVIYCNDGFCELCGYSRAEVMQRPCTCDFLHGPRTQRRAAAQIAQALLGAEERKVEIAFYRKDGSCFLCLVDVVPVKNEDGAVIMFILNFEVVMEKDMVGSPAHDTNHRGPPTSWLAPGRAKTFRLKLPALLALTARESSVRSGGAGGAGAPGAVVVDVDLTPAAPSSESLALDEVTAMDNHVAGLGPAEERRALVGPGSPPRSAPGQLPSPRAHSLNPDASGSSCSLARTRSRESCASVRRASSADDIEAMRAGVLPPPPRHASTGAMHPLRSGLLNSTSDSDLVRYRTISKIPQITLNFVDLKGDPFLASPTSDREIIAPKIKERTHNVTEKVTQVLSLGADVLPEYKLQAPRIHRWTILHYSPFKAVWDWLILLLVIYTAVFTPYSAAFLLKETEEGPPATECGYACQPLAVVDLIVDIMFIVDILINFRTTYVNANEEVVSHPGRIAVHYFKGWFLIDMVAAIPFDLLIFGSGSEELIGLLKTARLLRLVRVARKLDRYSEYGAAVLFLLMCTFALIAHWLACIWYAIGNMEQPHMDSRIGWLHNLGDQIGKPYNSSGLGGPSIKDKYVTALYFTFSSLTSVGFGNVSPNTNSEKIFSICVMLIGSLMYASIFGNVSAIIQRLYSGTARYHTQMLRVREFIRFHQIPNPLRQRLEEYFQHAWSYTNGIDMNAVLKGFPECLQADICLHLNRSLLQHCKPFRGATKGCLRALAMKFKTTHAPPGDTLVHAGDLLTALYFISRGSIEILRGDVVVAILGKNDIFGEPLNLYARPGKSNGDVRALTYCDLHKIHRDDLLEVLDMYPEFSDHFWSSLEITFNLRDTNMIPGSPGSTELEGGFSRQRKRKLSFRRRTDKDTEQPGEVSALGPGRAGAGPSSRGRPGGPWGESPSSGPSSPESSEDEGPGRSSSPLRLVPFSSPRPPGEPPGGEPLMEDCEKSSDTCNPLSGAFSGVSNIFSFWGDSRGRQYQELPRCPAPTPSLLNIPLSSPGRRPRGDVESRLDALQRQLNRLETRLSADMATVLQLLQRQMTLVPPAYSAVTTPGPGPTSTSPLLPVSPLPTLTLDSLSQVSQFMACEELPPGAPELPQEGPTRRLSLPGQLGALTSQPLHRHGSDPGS
Sequence of human Ether-á-go-go-Related Gene (hERG) ion channel (Q12809 whole entry): as above
Sequence of SSTR1 (P30872 whole entry): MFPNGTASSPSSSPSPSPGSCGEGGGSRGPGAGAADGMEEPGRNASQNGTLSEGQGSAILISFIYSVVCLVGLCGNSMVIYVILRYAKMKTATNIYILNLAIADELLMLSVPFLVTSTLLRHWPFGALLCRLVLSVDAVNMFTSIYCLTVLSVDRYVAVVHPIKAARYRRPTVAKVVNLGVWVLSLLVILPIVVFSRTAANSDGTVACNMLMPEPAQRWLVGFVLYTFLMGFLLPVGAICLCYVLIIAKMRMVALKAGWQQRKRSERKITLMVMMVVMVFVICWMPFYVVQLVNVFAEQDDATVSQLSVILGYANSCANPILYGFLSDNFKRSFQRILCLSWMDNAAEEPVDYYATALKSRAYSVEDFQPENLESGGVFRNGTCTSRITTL

COc1cc2cc(c1Cl)N(C)C(=O)C[C@H](OC(=O)[C@H](C)N(C)C(=O)CCSSC[C@H](NC(=O)[C@@H]1CSSC[C@H](NC(=O)[C@H](N)Cc3ccccc3)C(=O)N[C@@H](Cc3ccc(O)cc3)C(=O)N[C@H](Cc3c[nH]c4ccccc34)C(=O)N[C@@H](CCCCN)C(=O)N[C@@H]([C@@H](C)O)C(=O)N1)C(N)=O)[C@]1(C)O[C@H]1[C@H](C)[C@@H]1C[C@@](O)(NC(=O)O1)[C@H](OC)/C=C/C=C(\C)C2 [Conjugate 57]
IC50 (SSTR1): 380 nM
IC50 (NCI-H727; 5,000 cells/well, excess octreotide (100 μM), read-out: Inhibition of Proliferation IC50 With Octreotide): 810 nM
IC50 (NCI-H727; 5,000 cells/well, read-out: Inhibition of Proliferation IC50 Without Octreotide): 3240 nM
IC50 (NCI-H727; 10,000 cells/well, excess octreotide (100 μM), read-out: Inhibition of Proliferation IC50 With Octreotide): 1900 nM
IC50 (NCI-H727; 10,000 cells/well, read-out: Inhibition of Proliferation IC50 Without Octreotide): 2690 nM
activity in the presence of excess octreotide (NCI-H727; octreotide 100 μM): not decreased
IC50 (NCI-H69; assay duration 72 h, 6 h treatment, read-out: Inhibition of Proliferation IC50 Without Octreotide): 108 nM
IC50 (NCI-H69; assay duration 72 h, excess octreotide (100 μM), read-out: Inhibition of Proliferation IC50 With Octreotide): 258 nM
IC50 (NCI-H69; assay duration 96 h, 6 h treatment, read-out: Inhibition of Proliferation IC50 Without Octreotide): 167 nM
IC50 (NCI-H69; assay duration 96 h, excess octreotide (100 μM), read-out: Inhibition of Proliferation IC50 With Octreotide): 271 nM
decrease of activity by pre-incubation with excess octreotide (NCI-H69; depending on the assay conditions): 1.6 fold and 2.4 fold
hERG ion channel inhibition (in words) [1]: did not inhibit
inhibition at 600 seconds (hERG): < 20%
IC50 (SSTR4): > 1000 nM
solubility ([2]; in saline): < 1000 µg/mL
excipient compatibility ([2]; non-ionic surfactants such as Tween 80 and solutol): compatible
excipient compatibility ([2]; tocophersolan (TPGS), super refined PEG 300, PEG 400, ethanol, dextrose, or Pluronics F68): not compatible
Diastolic Blood Pressure, overall segment mean [3, 4]: 100.8 ± 4.1
Mean Arterial Blood Pressure, overall segment mean [3, 4]: 124.0 ± 4.8
Systolic Blood Pressure, overall segment mean [3, 4]: 162.8 ± 5.7
Diastolic Blood Pressure, overall segment mean [3, 5]: 102.7 ± 1.5
Mean Arterial Blood Pressure, overall segment mean [3, 5]: 128.6 ± 2.0
Systolic Blood Pressure, overall segment mean [3, 5]: 172.2 ± 2.9
Diastolic Blood Pressure, overall segment mean [3, 6]: 99.6 ± 1.9
Mean Arterial Blood Pressure, overall segment mean [3, 6]: 125.7 ± 2.2
Systolic Blood Pressure, overall segment mean [3, 6]: 169.2 ± 3.1
Diastolic Blood Pressure, overall segment mean [3, 7]: 99.8 ± 4.2
Mean Arterial Blood Pressure, overall segment mean [3, 7]: 122.7 ± 4.9
Systolic Blood Pressure, overall segment mean [3, 7]: 161.1 ± 5.9
Diastolic Blood Pressure, overall segment mean [3, 8]: 97.7 ± 1.5
Mean Arterial Blood Pressure, overall segment mean [3, 8]: 122.6 ± 2.1
Systolic Blood Pressure, overall segment mean [3, 8]: 165.7 ± 3.0
Diastolic Blood Pressure, overall segment mean [3, 9]: 93.8 ± 1.9
Mean Arterial Blood Pressure, overall segment mean [3, 9]: 119.4 ± 2.2
Systolic Blood Pressure, overall segment mean [3, 9]: 163.4 ± 3.2
Diastolic Blood Pressure, overall segment mean [3, 10]: 112.0 ± 4.1
Mean Arterial Blood Pressure, overall segment mean [3, 10]: 138.7 ± 4.8
Systolic Blood Pressure, overall segment mean [3, 10]: 182.0 ± 5.7
Diastolic Blood Pressure, overall segment mean [3, 11]: 104.1 ± 1.5
Mean Arterial Blood Pressure, overall segment mean [3, 11]: 129.8 ± 2.0
Systolic Blood Pressure, overall segment mean [3, 11]: 176.3 ± 2.9
Diastolic Blood Pressure, overall segment mean [3, 12]: 97.1 ± 1.9
Mean Arterial Blood Pressure, overall segment mean [3, 12]: 123.5 ± 2.2
Systolic Blood Pressure, overall segment mean [3, 12]: 171.1 ± 3.1
blood pressure, heart rate and respiratory rate ([3]; 0.24 mg/kg, from dosing through 1.5 to 2 hours following dosing): statistically significant increases
effects on QRS duration, ECG morphology, or tidal volume ([3]; any dose level tested): no test article-related effects
adverse effects on cardiovascular or respiratory function ([3]; iv, male beagle dogs, doses up to and including 0.24 mg/kg): no adverse effects
tolerability, clinical observations, mortality ([3]; single iv infusion over 6 minutes, 0.16, 0.20 and 0.24 mg/kg, male beagle dogs): generally well tolerated
